Measurements taken from patent US20260069689A1 (Regeneron, published 2026).
“And” between values parts separate entries of the source, which are not always exact repeats. Equal values may be shown once.

Tests used:
[1] = target: SARS-CoV-2 RBD.mmh (Spike amino acids Arg319-Phe541 with C-terminal myc-myc-6-Histidine tag) (SARS-CoV-2, UniProt P0DTC2 319-541)
[2] = target: T1, SARS-COV-2 RBD-MMH (SARS-COV-2 RBD extracellular domain with C-terminal myc-myc-hexahistidine tag) (SARS-CoV-2); assay: SPR 37C, mAb captured, pH 7.4 vs pH 6.0
[3] = target: T1, SARS-COV-2 RBD-MMH (SARS-COV-2 RBD …)
[4] = target: human FcγR3a 176Val allotype receptor (human, UniProt P08637 17-254); assay: cell-based or functional assay
SARS-COV-2 RBD-MMH [5] = target: SARS-COV-2 RBD-MMH (SARS-CoV-2); assay: SPR 37C, run with dissociation at pH 7.4
SARS-COV-2 RBD-MMH [6] = target: SARS-COV-2 RBD-MMH (SARS-CoV-2); assay: SPR 37C, run with dissociation at pH 5.0

Row | Binder | IC50 [1] | t½ Ratio of pH 7.4 to pH 6.0 [2] | koff [3] | t½ at pH 6.0 [3] | t½ at pH 7.4 [3] | EC50 (M), Jurkat/CD20/spike [4] | Fold induction, Jurkat CD20 [4] | Fold induction, Jurkat/CD20/spike [4] | RBD.mmh Bound at pH 7.4 (RU) (SARS-COV-2 RBD-MMH [5]) | koff (SARS-COV-2 RBD-MMH [5]) | RBD.mmh Bound at pH 7.4 (RU) (SARS-COV-2 RBD-MMH [6]) | koff (SARS-COV-2 RBD-MMH [6]) | t½ (SARS-COV-2 RBD-MMH [6])
1 | mAb14232 (antibody, V domains shown) VH: QITLKESGPTLVKPTQTLTLTCTFSGFSLSASGVGVGWIRQPPGKALEWLALIYWDDDKRYSPSLKSRLTITKDTSKNQVVLTMTNMDPVDTATYYCAQHKVATIFDYWGQGTLVTVSS VL: QSALTQPPSASGSPGQSVTISCTATSSDVGNYNYVSWYQQHPGKAPKLMIYEVTKRPSGVPDRFSGSKSGNTASLTVSGLQAEDEADYYCSSYAGSWGVFGGGTKLTVLG | 18 nM | 0.4 | 0.0124 s⁻¹ | 0.9 min | 0.4 min |  |  |  |  |  |  |  | 
2 | mAb14247 (antibody, V domains shown) VH: QITLKESGPTLVKPTQTLTLTCTFSGFSLSTSAVGVGWIRQPPGKALEWLALIYWDDDKRYSPSLKSRLTITKDTSKNQLVLTMTNVDPVDTATYYCAHHTIQLIFDYWGQGTLVTVSS VL: QSALTQPASVSGSPGQSITISCTATSSDVGNYNYVSWYQQHPGKAPKLMIYEVSNRPSGVSNRFSGSKSGNTASLTISGLQAEDEADYYCSSYTSSSTPLVFGGGTKLTVLG | 0.446 nM | 1.1 | 0.00167 s⁻¹ | 6.9 min | 7.3 min |  |  |  |  |  |  |  | 
3 | mAb14295 (antibody) heavy: not shown light: DIQMTQSPSSLSASVGDRVTITCRASQSINTYLNWYQQKPGKAPNLLIDGASSLQSGVPSRFSGSGSGTDFILTISSLRPEDFATYYCQQSYSIPLTFGGGTRVEIKRTVAAPSVFIFPPSDEQLKSGTASVVCLLNNFYPREAKVQWKVDNALQSGNSQESVTEQDSKDSTYSLSSTLTLSKADYEKHKVYACEVTHQGLSSPVTKSFNRGEC |  |  |  |  |  | 1.93e-10 M | 1 fold | 11.5 fold |  |  |  |  | 
4 | mAb14256 (antibody, V domains shown) VH: QVQLQESGPGLVKPSETLSLTCTVSGGSISSHYWSWIRQPPGKGLEWIGYIYYSGSSNYNPSLKSRVTISVDTSKNQFSLKLNSVTAADTAVYYCARHYDILTGFDWFDPWGQGTLVTVSS VL: QSVLTQPPSVSGAPGQRVTISCTGSSSNIGTHYDVHWYQQLPGTAPKLLIYGNSNRPSGVPDRFSGSKSGTSASLAITGLQAEDEADYYCQSFDNSLTAPYVFGTGTKVTVLG | 0.48 nM | 0.8 | 0.00955 s⁻¹ | 1.2 min | 1 min |  |  |  |  |  |  |  | 
5 | mAb14257 (antibody, V domains shown) VH: EVQLVESGGGLVQPGGSLRLSCAASGFTVSRSYMNWVRQAPGKGLEWVSVVFTGGTTKHTDSVKGRFTISRDNSMNTLYLQMNSLRPEDTAVYYCARVAIVETTGAFDIWGQGTMVTVSS VL: QSVLTQPPSVSGAPGQRVTISCTGTSSNIGADFDVHWYQQFPGTAPKLLIYGHTNRPSGIPDRFSGSKSGTSASLAITGLQAEDEADYYCQSYDSSLSGSVVFGGGTKLTVLG | 0.365 nM | 1.1 | 0.00842 s⁻¹ | 1.4 min | 1.5 min |  |  |  |  |  |  |  | 
6 | mAb14314 (antibody) heavy: not shown light: QSVLTQPPSVSAAPGQKVTISCSGSISNIGNNYVSWYQQLPGTAPKLLIYDNDKRPSGIPDRFSGSRSGTSATLGITGLQTGDEADYYCGTWDSSLTAYVFGTGTKVTVLGQPKAAPSVTLFPPSSEELQANKATLVCLISDFYPGAVTVAWKADSSPVKAGVETTTPSKQSNNKYAASSYLSLTPEQWKSHRSYSCQVTHEGSTVEKTVAPTECS |  |  |  |  |  |  | 1.1 fold | 3.9 fold |  |  |  |  | 
7 | mAb13458 (antibody, V domains shown) VH: EVQLVESGGGLVQPGRSLRLSCAASGFTFDDYAMHWVRQAPGKGLEWVSGISWNSGSIGYADSVKGRFTISRDNAKNSLYLQMNSLRAEDTALYYCAKDIGITTPYWGQGTLVTVSS VL: AIQMTQSPSSLSASVGDRVTITCRASQDIRNDLGWYQQKPGKAPKLLIYSASSLQTGVPSRFSGSGSGTDFTLTISSLHPEDFATYYCLQDYWYTWTFGQGTKVEIKR | 0.873 nM | 1.2 | 0.00199 s⁻¹ | 5.8 min | 7.2 min |  |  |  |  |  |  |  | 
8 | mAb13459 (antibody, V domains shown) VH: EVQLVESGGGLVQPGRSLRLSCAASGFTFDDYAMHWVRQAPGKGLEWVSGISWNSGSIGYADSVKGRFTISRDNAKNSLYLQMNSLRAEDTALYYCAKDIGITTPYWGQGTLVTVSS VL: AIQMTQSPSSLSASVGDRVTITCRASQDIRNDLGWYQQKPGKAPKLLIYSASSLQTGVPSRFSGSGSGTDFTLTISSLHPEDFATYYCLQDYNYVWTFGQGTKVEIKR | 4.43 nM | 1.1 | 0.00229 s⁻¹ and 0.00239 s⁻¹ | 4.8 min | 5.1 min |  |  |  |  |  |  |  | 
9 | mAb14255 (antibody, V domains shown) VH: QVQLQESGPGLVKPSETLSLTCTVSGGSISGYYWSWIRQPPGKGLDWIGYIYYRGNTNYNPSLKSRVTISVDTSNNQFSLKLSSVTAADTAVYYCARYGEGYGDASGYHFDYWGQGTLVTVSS VL: QSALTQPASVSGSPGQSITISCTGTSSDVGSYNLVSWYQQHPGKAPKLMIYEDSKRPSGVANPFSGSKSGNTASLTISGLQAEDEADYYCSSYAGSSTWVFGGGTKLTVLG | 0.157 nM | 1 | 0.00513 s⁻¹ | 2.3 min | 2.3 min |  |  |  |  |  |  |  | 
10 | mAb14285 (antibody) heavy: not shown light: QSALTQPASVSGSPGQSITISCTGTSSDVESYNLVSWYQQHPGKAPKLMIYEGSKRPSGVSNRFSGSKSGNTASLTISGLQAEDEADYYCSSYAGSSTWVFGGGTKLTVLGQPKAAPSVTLFPPSSEELQANKATLVCLISDFYPGAVTVAWKADSSPVKAGVETTTPSKQSNNKYAASSYLSLTPEQWKSHRSYSCQVTHEGSTVEKTVAPTECS |  |  |  |  |  | 2.43e-10 M | 1.1 fold | 11 fold | 64.2 RU | 0.0258 s⁻¹ | 51.5 RU | 0.0025 s⁻¹ | 4.6 min
11 | mAb14258 (antibody, V domains shown) VH: QLQLQESGPGLVKPSETLSLICTGSGDSISSSHYYWGWIRQPPGKGLEWIGSTYFSGSTYYNPSLKSRVSISVDTSKNQVSLKLISVTAADTAVYYCAREMGATLGDYWGPGTLVTVSS VL: QSVLTQPPSASGTPGQRVTISCSGSSSNIGNNYVYWYQQFPGTTPRLLIYRNNERPSGVPDRFSGSKSGTSASLVISGLRSEDEADYYCAAWDDSLSAHYVFGTGTKVTVLG | 0.121 nM | 0.3 |  | 21.1 min | 5.4 min |  |  |  |  |  |  |  | 
12 | mAb14232 (antibody) heavy: not shown light: QSALTQPPSASGSPGQSVTISCTATSSDVGNYNYVSWYQQHPGKAPKLMIYEVTKRPSGVPDRFSGSKSGNTASLTVSGLQAEDEADYYCSSYAGSWGVFGGGTKLTVLGQPKAAPSVTLFPPSSEELQANKATLVCLISDFYPGAVTVAWKADSSPVKAGVETTTPSKQSNNKYAASSYLSLTPEQWKSHRSYSCQVTHEGSTVEKTVAPTECS |  |  |  |  |  | 1.31e-10 M | 1.2 fold | 10.8 fold | 8.2 RU | 0.0311 s⁻¹ | 10.1 RU | 0.000656 s⁻¹ | 17.6 min
13 | mAb14235 (antibody, V domains shown) VH: QITLKESGPTLVKPTQTLTLTCTFSGFSLNTGGVGVGWIRQPPGNALEWLALIYWDDDKRYNPSLKTRLTISKDTSKNQVVLTMTNMDPVDTATYFCAHLTIAVIVDFWGQGTLVTVSS VL: QSALTQPASVSGSPGQSITISCTATSSDVGTYNYVSWFQHHPGKAPKLMIYEVTNRPSGVSNRFSGSKSGNTASLTISGLQAEDEADYYCSSYTTTSIVFGGGTKLTVLG | 0.234 nM | 0.8 | 0.00114 s⁻¹ | 10.1 min | 7.8 min |  |  |  |  |  |  |  | 
14 | mAb14280 (antibody, V domains shown) VH: QVQLVQSGAEVKKPGASVRVSCKASGYTFTGNYIHWVRQAPGQGLEWMAWINPNSGGKNYAQKFQGRVTLTRDTSVNTAYMELSRLRSDDTAMYYCARDVNYNILTGPGGLWGQGTLVTVSS VL: QSALTQPPSASGSPGQSVTISCTGTSSDVGGYNFVSWYQQHPGKAPKLMIYEVSKRPSGVPDRFSGSKSGNTASLTVSGLQAEDEADYYCSSYAGSNNFVFGTGTKVTVLG | 1.74 nM | 0.8 | 0.019 s⁻¹ | 0.6 min | 0.5 min |  |  |  |  |  |  |  | 
15 | mAb14230 (antibody, V domains shown) VH: EVQLVESGGGLIQPGRSLRLSCAASGFTFDDYAMHWVRQAPGKGLEWVSGISWNSVSIDYADSVKGRFTISRDNAKNSLYLQMTSLTVEDTALYYCAKAFGYETLTGSDYFAYWGPGTLVTVSS VL: EIVLTQSPGTLSLSPGERATLSCRASQTVISTYLAWYQQKPGQSPRLLIYGASSRATGIPDRFSGSGSGTDFTLTISRLEPEDFAVYYCQQYGSSPQLTFGGGTKVEIKR | 9.97 nM | 1.1 | 0.00797 s⁻¹ | 1.4 min | 1.5 min |  |  |  |  |  |  |  | 
16 | mAb14234 (antibody, V domains shown) VH: QVQLVESGGGVVQPGRSLRLSCAASGFTFSSYGIHWVRQAPGKGLEWVAIIWYDGSEKYYADSVKGRFTISRDNSKNTLFLQMNSLEAEDTAVYYCARGPDLLTGYYNYFYYGMDVWGQGTTVTVSS VL: QSVLTQPPSVSGAPGQRVTISCTGSSSNIGIGYDVHWYQQLPGTVPKLLIYGNTNRPSGVPDRFSGSKSGTSASLAITGLQAEDEADYYCQSYDSSLSSYVFGTGTKVTVLG | 4.62 nM | 0.6 | 0.00143 s⁻¹ | 8.1 min | 5.2 min |  |  |  |  |  |  |  | 
